The values below come from paper PMC7334588.

This assay addresses RSC chromatin remodeling complex (S. cerevisiae) (UniProt P32597). Put plainly: BLI.
Chain of UniProt P32597 (P32597 whole entry, looked up, one chain of several): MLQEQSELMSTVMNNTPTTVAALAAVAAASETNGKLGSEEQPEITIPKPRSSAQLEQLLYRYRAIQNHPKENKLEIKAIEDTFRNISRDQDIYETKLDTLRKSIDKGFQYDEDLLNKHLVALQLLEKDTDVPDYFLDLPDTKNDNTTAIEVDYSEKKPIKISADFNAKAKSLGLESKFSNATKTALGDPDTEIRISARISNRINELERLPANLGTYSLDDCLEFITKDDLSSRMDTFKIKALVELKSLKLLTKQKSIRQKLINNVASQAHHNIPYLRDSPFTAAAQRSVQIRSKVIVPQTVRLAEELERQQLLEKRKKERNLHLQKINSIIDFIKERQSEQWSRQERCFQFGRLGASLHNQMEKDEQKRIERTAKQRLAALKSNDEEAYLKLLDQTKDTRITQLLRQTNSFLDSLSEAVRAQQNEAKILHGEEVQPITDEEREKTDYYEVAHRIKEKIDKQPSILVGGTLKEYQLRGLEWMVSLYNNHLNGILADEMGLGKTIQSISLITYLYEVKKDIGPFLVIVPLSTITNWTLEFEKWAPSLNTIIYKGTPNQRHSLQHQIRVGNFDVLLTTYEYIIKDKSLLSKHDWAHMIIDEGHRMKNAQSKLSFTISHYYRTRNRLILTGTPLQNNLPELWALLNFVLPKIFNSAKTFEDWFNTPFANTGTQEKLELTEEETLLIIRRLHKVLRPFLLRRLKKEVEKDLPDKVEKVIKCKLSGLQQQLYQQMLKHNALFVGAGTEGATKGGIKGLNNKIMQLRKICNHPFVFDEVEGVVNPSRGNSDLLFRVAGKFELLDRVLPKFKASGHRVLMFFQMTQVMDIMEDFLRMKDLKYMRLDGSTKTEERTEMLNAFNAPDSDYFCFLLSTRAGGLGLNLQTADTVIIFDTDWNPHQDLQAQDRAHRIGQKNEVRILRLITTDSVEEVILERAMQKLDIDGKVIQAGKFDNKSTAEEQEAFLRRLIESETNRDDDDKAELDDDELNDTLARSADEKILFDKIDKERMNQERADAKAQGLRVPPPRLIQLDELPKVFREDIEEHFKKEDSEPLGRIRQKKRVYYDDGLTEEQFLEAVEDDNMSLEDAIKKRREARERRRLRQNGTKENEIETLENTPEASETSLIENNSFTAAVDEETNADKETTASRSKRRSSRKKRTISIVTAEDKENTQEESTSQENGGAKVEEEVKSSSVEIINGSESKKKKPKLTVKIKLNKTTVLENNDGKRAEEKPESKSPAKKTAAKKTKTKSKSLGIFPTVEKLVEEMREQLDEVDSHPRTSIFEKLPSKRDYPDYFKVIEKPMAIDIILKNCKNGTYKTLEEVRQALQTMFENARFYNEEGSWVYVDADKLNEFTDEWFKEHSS

Substance “SUMOylated nucleosome with an in-frame fusion of SUMO to H2B (from UniProt P02281 6-126) (complex)” had a fold higher affinity than for unmodified nucleosomes of 2 fold.
